Experimental data taken from patent US6875741 (Novo Nordisk, dated 2005).

How the values were obtained:
[1] = target: T1, soluble human insulin receptor-immunoglobulin heavy chain chimera (human, UniProt P06213 28-956); assay: phage ELISA ratios compared
T1 construct: extracellular domain; Heterotetramer; also called IR; sIR-Fc; not shown: immunoglobulin heavy chain constant domains replacing the transmembrane and intr

[2] = target: T2, Soluble IGF-1R (R&D Systems, Cat. # 391-GR) (UniProt P08069 31-935, limits assumed); assay: phage ELISA ratios compared
T2 construct: extracellular domain; bought; also called sIGF-1R

Binder	IR/IGF-1R ratio comparison [1]	IGF-1R/IR ratio comparison [2]
AICDAGFHEHFYDWFALQVSDCGRQS [H2CA-2-B11-IGFR]	0.3	3
QAVQPGFHEEFYDWFVRQVSTGVGGG [H2CA-4-H4-IGFR]	0.2	4.2
FYVQQWGHENFYDWFDRQVSQSGGAG [H2CA-4-F1-IGFR]	0.3	3.8
KLHNLMFYYGLQRLVWGAGLG [20E2B-4-H3-IGFR]	0.1	13.9
YRGMLVLGRISGGAGKAASERPARIGQKVSAVNFYDWFV [A6L-0-H3-IR]		13
SQAGSAFYAWFDQVLRTVHSA [20E2Bβ-4-G6-IR]		3.3
MMVVDGFYDALHQLVVAQSLG [20E2A-3-D10-IGFR]		3.9
LQPCSGFYECIERLIGVKLSG [20E2Bβ-4-G7-IR]		15.8
LRRQAPVEENFYDWFVRQVSGDRVGG [H2CA-3-D7-IGFR]	0.3	3.7
NYRRQVFNGNFYDWFDRQVFSLVTPG [H2CA-3-D8-IGFR]	0.3	4
APDPSDFQEIFYDWFVRQVSRMPGGG [H2CA-1-A3-IGFR]	0.2	5.1
FRTLAAQHDSFYDWFDRQVSGAAGER [H2CA-3-C11-IGFR]	0.5	2.1
FFYDCLAALLQGVARYHDLCAVEIT [20C-4-C7-IGFR]	< 0.1	21.8
GCVVEWQKWHGASDPFYHKLSELGGCS [B6Hα-3-F10-IR]		4.6
GGTEVDFYRALERLVRGQLGL [20E2B-3-D8-IGFR]		11.3
GRTMAVMAAGGPDDPFYHKLSELVQGG [B6Hα-2-D6-IR]	0.2	
LKDGFYDYFWQRLHLGS [NNRPγ-4-B11-IR]	0.1	15.5
RGAVAGFHDQFYDWFDRQVSRVHKFG [H2CA-4-H9-IGFR]		3
QSPVGSSHEDFYDWFFRQVAQSGAHQ [H2CA-3-D6-IGFR]	0.3	4
VEGRGLFYDLLRQLLARRQNG [20E2B-3-C6-IGFR]	0.1	14.8
RAGSSDFHEDFYEWFVRQVSLSLKGK [H2CA-2-B9-IGFR]	0.2	4.2
GFREGSFYDWFQAQVT [E4Dα-2-D11-IR]	0.3	3.4
GAPVDQLHEDFYDWFVRQVSQAATG [H2CA-2-B2-IGFR]	0.3	3.5
GVRAMSFYDALVSVLGLGPSG [20E2B-1-A6-IGFR]	0.1	16.8
GGTKAVAKVGTRDDPFYHKLSELLQGS [B6Hα-4-G8-IR]		3.6
CCTTEMVVMDARDDPFYHKLSELVTGG [B6Hα-1-B5-IR]	0	
QGGSASFYDAIDRLLRMRIGG [20E2A-4-F11-IGFR]	0.1	14.6
SSIGGGFHENFYDWFSRQLSQSPPLK [H2CA-4-F7-IGFR]	0.2	4.1

Binder	IR/IGF-1R ratio comparison [1]	IGF-1R/IR ratio comparison [2]
QPDHSYFYSLLQELVGSEERL [20E2B-4-F9-IGFR]		7.7
EAASLGSQDRNFYDWFVRQVV [A6S-2-D11-IR]	0.4	2.8
LGYQEPFQQNFYDWFVRQVSGAENAG [H2CA-3-E8-IGFR]	0.3	2.9
TLDGGSFEEQFYDWFVRQLSYRTNPD [H2CA-4-G11-IGFR]	0.3	3.9
IIGGFYSYFNSVLRLGT [NNRPγ-4-A1-IR]		6
LRIANLFYQRLWDLAFGGGG [20E2B-3-E8-IGFR]		11.1
RGCNDDGGKGWSDDPFYHKLSELICGG [B6Hα-1-A2-IR]	0.1	
PPLASDLDVQFYGWFVQQVSPPGRGG [H2CA-2-B3-IGFR]	0.3	3.6
SSCDGAGHESFYEWFVRQVSGCRSV [H2CA-3-C8-IGFR]	0.2	4.8
RGMKEEVLVGGSTDPFYHKLSELLQGS [B6Hα-3-F11-IR]		11.7
CCLLCRFQQNFYDWFVCQGISRLRPL [H2CA-2-B4-IGFR]	0.3	3.6
QPAPDGFYSALMKLIGRGGVS [20E2B-3-C8-IGFR]		8.9
VNQSGSIHENFYDWFERQVSHQRGVR [H2CA-4-F10-IGFR]	0.2	5.9
RGIVAMVEATEVGSDHDPFYHKLSELVQGS [B6Hα-2-C7-IR]	0.1	
RCEEKQAEVGPSSDPFYHKMSELLGCR [B6Hα-3-E9-IR]		14.2
YRGMLVLGRSSDGAGKVAFERPARIGQTVFAVNFYDWFV [A6L-0-E6-IR]		17
RCGRELYHSTFYDWFDRQVAGRTCPS [H2CA-1-A7-IGFR]	0.3	3.7
GFREGNFYEWFQAQVT [E4Dα-4-H2-IR]	0.2	4.1
PDLHKGFYAQLAQLIRGQLLS [20E2B-3-E3-IGFR]	0.1	13.1
SSYGCDGFYLMLFSLGLVASQELEC [20C-3-A1-IGFR]		13.7
TFYSCLASLLTGTPQPNRGPWERCR [20C-3-G3-IGFR]	< 0.1	27
FYDAIDQLVRGSARAGGTRD [R20α-3-20E2-IR]	0.1	12.9
TSEVQRRSQDNFYDWFVAQVA [A6S-3-E2-IR]	0.4	2.5
VERSASSQDGNFYDWFVVQIR [A6S-2-D1-IR]	0.4	2.6
HLADGQFHEKFYDWFERQISSRCNDC [H2CA-3-E11-IGFR]	0.5	
RLFYCGIQALGANLGYSGCV [R20α-4-20A12-IR]	0.1	16.6
RGQSDAFYSGLWALIGLSDG [R20β-4-A6-IR]	0.1	17.3
